According to the supplement of paper PMC12636428:

What follows are sequences tested on Saccharomyces cerevisiae (assay: transcriptional activation domain activity (GFP:mCherry ratio, weighted mean of sorted bins, harmonized to initial dataset scale) (arbitrary fluorescence ratio units); higher = stronger transcriptional activation). Settings: beta-estradiol 1 µM; induction time 4 h.
Method in brief: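 Sorting into 8 bins by GFP:mCherry ratio followed a 4-hour hold at 30 °C after cultures were diluted 1:5 into SC with 1 uM beta-estradiol. The yeast diploids carried a GFP reporter and had barcoded protein tiles, fused to an estradiol-inducible synthetic transcription factor, integrated at URA3. Barcodes were then sequenced, and tiles with under 50 reads were removed. Activation activity is the read-weighted mean of bin median fluorescence, averaged across barcodes and linearly mapped onto the initial dataset scale.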

Sequence	transcriptional activation domain activity
SEPTAGNEGKEETSAPKKEESKPAESEKKAEEPKQEQPKKEEKKAEGKPASGS	31400
RCMVIYRSSGFFFWAIVLLPCLMFLASFSESLFQYISSPSFTVTVRLGLGILF	63200
QFARFTLEETNLMWKRAANPELTPLTSFPPLWVATRLRLFYVINSILSYFMTT	60800
SRLHARIEYEESSEQFVLAVLGRNGAWVDGVWSGSGSRVPLSSRSQIQIASRV	52800
MLARFKWSMWRMSLVRALRASLNITLFFYFLFPPRYSYVFLFLFLSFFLFFFS	32500
SAEFRANEFARHPLLDALLLSLMVDGSSTLLEIEVATLVCLLRQFAIHAPDTL	51800
EDSEPEPQPQKSQSRRRQSRGRGRRGGDSDNESVARSDVSASGGRRNRQRKQK	22200
DQTICAEVMRCCESNVVAFRRLVHMIQIQLRNIGIMADIRLVRNLVLVLHGAL	62000
FHIGIYARVLMCLLLDKKARPLPEDMKLWVDLLRWLKGGSPGGALSFFTYMEL	30900
GKGIGGFNCVAASLGVVQVGMQWSCFAVILLLFLIYFPSASSLGSPATTPTGT	36400
PSRLTSPSSRRLPSTPGPHPRKSTPRSKPPPSSPARRRSSSTTPTGRPSQPSS	24900
MSFRFPTLFFFSLTLFLVSPFWFYLLFSVFFFLISLVFLESHFFCLGSINTLY	39800
EERRRGRRRRRKGGGEGGRGRKREKEREERERKGEKKEGERKGKGEEKGREKK	20300
GDEIVVVIQRARPVSAAAASSVTAVKVRRGDVRRAVIVRTRKAVRRPDGRYIR	70400
RTLLVVLISMLYFLTVEMFLPVFYLFDESLYNFLSWILTAFWSRLALWVLGFY	56000
TAIVTVISTVMAIATVTATGIMSIIDTMSTTAIITAIAMDMVTESIMVITAIT	87500
NITKILVMKFFTIDFTFTIMYITGLLITFLYYLVGYFQMNVKLLGSDRAYFAF	35700
WYHHVPLCILVLLLLAPHPSILYVLLNYHYLTLHATHYFIVHLLTIYAFSFLA	45900
LGSLTFLDNAFQLDLEFLLSSNMTMPSPLDTCFDFLFPFTQMPSLEPCTFPPV	138000
RSKSSDESSSDSDSDSGSESGSDSDTSRRKRSKSKSSSRSKSKSKSSKLRARS	10600
QILICVIYVLVAYSRDDTSWSRVCYFMPCAPQSIKERDQAFSLFAGIFSFVVV	39200

Sequence	transcriptional activation domain activity
HHTLPYRFRLDGHAAYLGLFIHFLSVLVVVYIFRLEVCVRYRPGWMRCQCWWR	81600
RVLVILRMWAFCYRGNGRTKYAHEMLHLLHNLICVWTKELRHIVLQNWLANPQ	61100
TCRLSSPHLWWLTFGILCVLYLMVLEIFLLGLLVFFVGPLFYLFWNVVLLCLG	79500
KTRGFQEGVSLTVYDELARWEKYAYGCNELIFHPMRYWPTRGPFTKLFIRFIF	41600
KGKGRRRGRGRGRGRGRGREGKGKGREGEGKGKGKEKGKGKGKGKGKGKGKGR	28000
MHLLTFTIPSYRAVCKVFPFLFWLSLFLTHWFVYSFSFLQAFFSFCFTWAWCV	69900
REGEGRGERGREGAGRERGGGKGVGGGEGGGERTIRLKGRKGDSNETTRRKEE	31700
MSSPEVNSSQPASSPRKARRYGFACASCKARKVKCSGDQPVCRACRRANESCV	24300
SRLRKTGTPTSSQHSSTAFSGYIDDPFNLNEILPLPASDFKLNTVTNLNEIDF	106000
VHVNDMVGFKFMSDKHEIFSKVLLTDVLKGTLAHQWLGYNVLFSNGSEWHFFR	59100
MRILQFFSFLYLLLYFSRTLLIVIYTLVILLLNQLLVFFKFLSLFFAFFWYVF	41400
LVYNDCMYIIFHLHMFEYRYGKQLAKTLLYWTYAHTHFCQLVQVESALRQVIQ	48100
MLFYFYFYFYFYAFSIFSFYVIFYFLYFFFLFRPGLLYLLLLFFSILFVLFLP	64900
IFNPLNWVFVQSSKVFPVDYILALLLVFDFFISSVVGIAFIGIRFLWVTLFRL	71500
MDSGGRLEVHLFFFLLLFVQMWFSWVYFLFSLVFLTLLTRDLGGLLLLVYSFC	34700
TFQPEHTCFPFFLFFFFLFFPPLSFFLPLFFPYSFSVAPLLSAPTVTTHTFTF	52800
MGDCIKAHVFLLTFFYLYIHTHIFLFLFFIFLPFLLFSASSIYILFSFLFFPA	32300
KAEPKKEAAKGPRNVSGVTVDDKKEGKGKAAKKGDRVEMRYIGKLKSGKVFDS	36900
SVCHRAGEGDEEVEDEEEGEESDEEEEDGDDEKTADGGRAASARKGRDAGAGA	13000
SSNFQTIDNENNVKTPGNKLTDFFQQQSAGWIEGNSSNDDFFGWFDMNMEQGF	133000
GVFILCRKRIVYMDGWRVWGVLIFRLFTWLFLGWLKIARGLGLGPALMMFLWL	46200

Sequence	transcriptional activation domain activity
PAPKKAAAPAKKDALKAKKEESSSSSSDSEDEKPAPKKAAASAAKKVVAKAQK	21000
MYLQWASCPLLICVSCFYTSLIYFAIISMSSMILTLVCLDRSMCWYSGWIFSS	46000
EVMKITPVQKQTRAGQRTRFKAFVAIGDSNGHVGLGVKCAKEVASAIRGAIIL	61100
AFVLFLIYLTFFCWLCFATSASWVWSEILSDGQYNESFMPVNYVLLAVLSGII	53800
LEVTQRGITPANTDYNSNPIDKCLVSDSFNESTTNLLRSLLHCLRILALTYHA	36600
SNPKELFFIRILLDLSWIDMRVAICSLRPILGEEPRKFREMLLVLPTLCSEIY	66100
VYCELVSFLVLSSKKSDTKLLIQLERVARYISQLLFVESDAITMTSGISVLRP	37500
MIMGKVVGSIPTVSNFLPFSFLFFFSSFLFSSLSSCEVVCLIISFFSFFHWLS	55200
AEYDVVLLKRLLYELNGRRNRLMVLPSRLALWEIVMPWVIDLVCRVRFNVTYT	64600
SSTNPGTESAKPEKPKRAPRQKASSKKADSKPKRTTARSKKAVKLAAEKLLSP	15600
MLFFFSGLLFFLSLLSLVFLFALFFIRISTPTIRFRLWFFLLLLLLFSLFLLF	45500
SLQLLYFMPVRYYTYHKRGYHYFLADLCYFVNVLLLLSIWIFPNSRRLMISTY	65100
ILRKLGFIVHVQLPYNLMINYLRILGLEDDEVISRKAWNYLNDGLRTNIYVTY	55800
GVLMCYYSRSHNFDVAKRHFQRILNLLPLLKSTPNIFPLYGLIFSTMGLLVLI	62600
HLLIKILATRFFLEAKKTTYAPLNDQGTLMPSVEWTIMAQLWRLARNKWFEAT	51000
AKMSVRPTVFGLNYIQLVAKLRLSLEDVRVEYLIYAAQILVLKDQFLRHEFHV	53000
RRRVNLLVCTCGMLISLIVVGGLGTTHRGGPFNKPVGITIVVFSYINIICFNF	45300
QYTKLFFFFFLWPLPSLSLLHLPHFSCSLFPFFPTFAPPFSLSLYLSQSFLFL	54900
SLLQSLPFPLQFLTLCFNSHLLIVIVVIIGCILESIYVGTFLWMLLRVCRWQG	66500
LAGGLGFFLWLLPTWWVLFACVGFLVWLFWSPVVLVASVGFVAWKLGYWWVLW	24100
FYGLYPDNAQTLGSAPKTPTMRLVKAYLKTILSNPESRKIFYFLVLNLSYMMV	85300

Sequence	transcriptional activation domain activity
HQPGPWESLDMPWAIGWGLGAFPGIPWDVFFFPLWPSTLFPGSPPPSLLEAPS	55500
GVPIWRLTGETWNWKEIVDRHPLTGKVVRRRSLKWGMACYRFWWVVWGCLFYI	59300
SGNPPNVVMPPIVCPYSPIIIISYVVTYFFLHHFGGLIGWLQFLSLLLQSLMV	51000
KVISLLYSNRESSYLEDTCPTENDYSDLLKGYINEIEKTLPPKAIIEQYLSHF	51100
PPPPPPPPPPGRGGAGHPPPPPPPPPPPAGGGGGPPPPPPPPPPSGGAPPPPP	< 6570
GREANDAAQKQRKREGARAARDGNRSAKEGNGRQDAGSRKKAGDGEGGGAERG	20600
TSVLPIIAVHCAYKTPISDYILAFCYLLPYIYHSMGYLVRWLYLGLRVIFVAK	70400
AFLLPFANHHRFVSYCLYVFGFIFFVFSLEKGYYKQQFTQFCVTHMCLLLVVF	39800
MSLGELAVLWVKRARHLGQSLLRVVLVSYAVDLPANCVALLRTGIRVLMLNMI	37300
CFYLTTRFWDYKRKSYHYFLFGLCYFVNIMDLFYIWFFRDNVYYFIMCWCLTL	57200
MLYQLFYFSRTKLIILVFFVLFSLLIISLFFFLFIPPFTFFFPFHMPEVFQNI	38200
LLKAVQEDEGDDGVIVAYLDTLVPLLEDYLTSGPLGQFTLRLRLLLSFQVYAS	53800
LIVMRDRVEIIMLLWPIINIAFVILVGYDSDVTKSIRRLRQKYWSSLSVMAST	68600
MNILNLEMWYYLLECLNLRFVLVFFLLSLFFSSRFTGGLVGVECFSFFVWITM	86000
MSMLQVQWCYVMLYFDLSTSELLYFYLYLIFYSSFLFFNLWWLLNVDDASAPA	41500
ERHLLPGNIFWAVAFGWWLSGCCMIVSGLLYLVPMGGGRYGKLIYGLGWYLAW	65400
MPLPPLSLSLLVLHSRHSQHSFSLHTYTLTFLFYFPYLLIDLDYLAFFFIFFP	41400
MSEPPRKRAKLACVTCNSRRVKCDVTDRQPCTNCITANVHCETRESKRGKHPR	40500
PGEVSEAEANGEVKAEGEVVATDDAAKPKKKKSKKSRKARAAKAATEDEEGAA	< 6570
SKIAWMILNIKYITQILTTIMRMHGQIEKNPLRPEVVPQFVGICRWIMQFMIY	55700
